Reference: US20220411487A1 (Regeneron, published 2022)

T1: full length human TMPRSS6 with a C-terminal triple myc tag on HEK293.hHJV cells (HEK293.hHJV/3xMyc.hTMPRSS6) (human, UniProt Q8IU80 1-811)
T1 sequence: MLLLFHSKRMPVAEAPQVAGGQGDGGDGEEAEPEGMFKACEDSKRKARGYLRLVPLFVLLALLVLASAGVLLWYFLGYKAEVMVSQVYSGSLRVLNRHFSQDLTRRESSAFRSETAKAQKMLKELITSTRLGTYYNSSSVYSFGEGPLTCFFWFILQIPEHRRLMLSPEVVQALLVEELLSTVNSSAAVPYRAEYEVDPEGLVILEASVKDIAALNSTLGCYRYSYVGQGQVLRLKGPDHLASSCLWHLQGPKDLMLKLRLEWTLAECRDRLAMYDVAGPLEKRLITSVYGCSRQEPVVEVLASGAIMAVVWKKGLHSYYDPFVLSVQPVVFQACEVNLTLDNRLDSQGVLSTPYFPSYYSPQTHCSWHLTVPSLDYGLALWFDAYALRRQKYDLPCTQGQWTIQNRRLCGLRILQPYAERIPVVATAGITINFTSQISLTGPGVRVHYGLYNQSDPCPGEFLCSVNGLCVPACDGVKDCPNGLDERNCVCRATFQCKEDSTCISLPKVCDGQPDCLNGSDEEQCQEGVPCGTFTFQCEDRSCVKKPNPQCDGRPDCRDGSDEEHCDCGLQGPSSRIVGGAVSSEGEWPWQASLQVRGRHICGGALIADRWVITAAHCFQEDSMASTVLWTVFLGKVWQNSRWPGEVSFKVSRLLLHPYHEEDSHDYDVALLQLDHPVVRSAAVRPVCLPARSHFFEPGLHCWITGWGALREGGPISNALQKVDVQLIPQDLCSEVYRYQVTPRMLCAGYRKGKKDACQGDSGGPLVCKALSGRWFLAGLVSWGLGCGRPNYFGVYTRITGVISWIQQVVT

T2: full-length mouse TMPRSS6 with a C-terminal triple myc tag on HEK293.hHJV cells (HEK293.hHJV/3xMyc.mTMPRSS6) (mouse, UniProt Q9DBI0 1-811)
T2 sequence: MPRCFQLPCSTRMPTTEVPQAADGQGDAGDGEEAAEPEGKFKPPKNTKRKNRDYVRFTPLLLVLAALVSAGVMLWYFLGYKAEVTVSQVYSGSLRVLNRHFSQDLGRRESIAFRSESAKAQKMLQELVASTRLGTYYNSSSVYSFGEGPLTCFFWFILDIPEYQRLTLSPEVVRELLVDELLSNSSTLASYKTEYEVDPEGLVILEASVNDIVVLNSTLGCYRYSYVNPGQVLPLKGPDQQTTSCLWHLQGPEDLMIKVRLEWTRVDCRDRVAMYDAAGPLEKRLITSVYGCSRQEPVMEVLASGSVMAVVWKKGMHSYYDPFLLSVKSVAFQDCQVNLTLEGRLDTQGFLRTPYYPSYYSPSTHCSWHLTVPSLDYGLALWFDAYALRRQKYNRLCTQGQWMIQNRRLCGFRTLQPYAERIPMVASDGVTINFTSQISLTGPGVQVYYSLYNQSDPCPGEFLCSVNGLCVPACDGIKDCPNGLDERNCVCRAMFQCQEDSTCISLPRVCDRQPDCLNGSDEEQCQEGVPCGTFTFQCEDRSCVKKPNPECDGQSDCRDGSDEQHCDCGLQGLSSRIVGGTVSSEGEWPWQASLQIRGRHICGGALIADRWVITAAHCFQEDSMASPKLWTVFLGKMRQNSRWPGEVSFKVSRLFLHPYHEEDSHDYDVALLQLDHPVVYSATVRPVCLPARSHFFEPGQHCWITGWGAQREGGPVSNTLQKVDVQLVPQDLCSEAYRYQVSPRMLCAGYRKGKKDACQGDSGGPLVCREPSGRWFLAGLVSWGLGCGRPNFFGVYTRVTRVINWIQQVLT

T3: full length human TMPRSS6 on HEK293 cells (HEK293/hTMPRSS6) (human, UniProt Q8IU80 10-811)
T3 sequence (looked up): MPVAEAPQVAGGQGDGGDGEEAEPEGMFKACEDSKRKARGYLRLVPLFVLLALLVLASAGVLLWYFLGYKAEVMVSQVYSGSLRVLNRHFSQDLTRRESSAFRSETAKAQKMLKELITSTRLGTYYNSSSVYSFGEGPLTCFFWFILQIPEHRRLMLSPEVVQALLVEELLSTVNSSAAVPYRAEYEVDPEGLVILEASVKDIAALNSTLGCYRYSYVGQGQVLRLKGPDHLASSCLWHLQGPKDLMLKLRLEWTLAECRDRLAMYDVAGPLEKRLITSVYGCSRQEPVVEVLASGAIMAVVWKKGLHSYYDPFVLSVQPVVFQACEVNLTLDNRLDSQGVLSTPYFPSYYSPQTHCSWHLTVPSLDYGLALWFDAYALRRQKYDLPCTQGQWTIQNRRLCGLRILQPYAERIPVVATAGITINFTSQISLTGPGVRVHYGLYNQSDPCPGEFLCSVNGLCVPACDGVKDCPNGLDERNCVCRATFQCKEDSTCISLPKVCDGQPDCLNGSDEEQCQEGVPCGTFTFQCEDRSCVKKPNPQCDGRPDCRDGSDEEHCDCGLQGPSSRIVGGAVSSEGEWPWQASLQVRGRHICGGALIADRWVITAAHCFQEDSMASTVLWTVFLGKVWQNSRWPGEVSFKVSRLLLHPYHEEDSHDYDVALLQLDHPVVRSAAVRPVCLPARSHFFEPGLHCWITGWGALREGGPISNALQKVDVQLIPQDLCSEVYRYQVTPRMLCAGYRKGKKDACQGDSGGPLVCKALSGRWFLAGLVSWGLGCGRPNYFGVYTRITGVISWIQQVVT


Tests used:
Test in all cases: cell-based or functional assay
[1] = target: T1, full length human TMPRSS6 with a …
[2] = target: T2, full-length mouse TMPRSS6 with a …
[3] = target: T3, full length human TMPRSS6 on HEK293 …

Binder	Geometric Mean Fluorescence Intensity of cell surface hHJV, 50 nM mAb [1]	Median Fluorescence Intensity of cell surface hHJV, 50 nM mAb [1]	Geometric Mean Fluorescence Intensity of cell surface hHJV, 50 nM mAb [2]	Median Fluorescence Intensity of cell surface hHJV, 50 nM mAb [2]	% inhibition, HEK293 bioassay, 30 min pre-incubation 25 C [3]	IC50, HEK293 bioassay, 30 min pre-incubation 25 C [3]
REGN7977 (antibody, V domains shown, fully human; human IgG4 Fc with hinge S108P; also called mAb41465) VH: EVQLVESGGGLVKPGGSLRVSCAASGVTFSNVWMSWVRQVPGKGLEWVGRIKSKTDGGTTDYAAPVKGRFTISKDDSKNTLFLQMNSLKTEDTAVYYCTTETGDFWSGYYPRFQHWGQGTLVTVSS VL: DIQMTQSPSSLSASVGDRVTITCRASQYISTYLNWYQQKPGKAPSLLIYAASSLQSGVPSRFSGSGSGTDFTLTISSLQPEDFASYSCQQSYSTPPYTFGQGTKLEIKR	49000	63800	9130	7030	86%	3.6 nM
REGN7969 (antibody, human IgG4 S228P, kappa, V domains shown, fully human; human IgG4 Fc with hinge S108P; also called mAb37746) VH: QVQLVESGGGVVQPGRSLRLSCAASGFTFNNYGMHWVRQAPGKGLEWVAIISYDGSNEYYSDSVKGRFTISRDNSKNTLYLQMNSLRAEDTAVYYCARDQDYGGNLFHYWGQGTLVTVSS VL: not shown	47900	67500	8390	7810	87%	1.9 nM
REGN7971 (antibody, human IgG4 S228P, kappa, V domains shown, fully human; human IgG4 Fc with hinge S108P; also called mAb37763) VH: QVQLVESGGGVVQPGRSLRLSCAASGFTFSTYGMHWVRQAPGKGLEWVAIISYDGSNDYYLDSVKGRFTISRDNSKNTLYLQMNNLRAEDTAVYYCAKDQGYGGNLFASWGQGTLVTVSS VL: not shown	61800	84400	8230	7470	86%	0.97 nM
REGN7999 (antibody, human IgG4 S228P, kappa, V domains shown, fully human; human IgG4 Fc with hinge S108P; also called mAb41450) VH: EVQLVESGGGLVQPGGSLRLSCAASGFTFSSYAMTWVRQAPGKGLEWVSAISGSDTSTYYADSVKGRFTISRDNSKNTLFLQMNSLRAEDTAVYYCAKHQDYDFSYYYSAMDVWGQGTTVTVSS VL: DIQMTQSPSSLSASVGDRVIITCRASQDFNSWLAWYQQKPGKAPKLLIYAASSLQSGVPSRFSGSGSGTDFTLTISSLQPEDFATYYCQQTDSFPFTFGPGTKVDIKR	30700	40100	23700	33600	86%	3 nM
REGN8023 (antibody, human IgG4 S228P, kappa, V domains shown, fully human; human IgG4 Fc with hinge S108P; also called mAb37699) VH: EVQLVESGGGLVKPGGSLRISCAASGFIFVDYAMHWVRQAPGKGLEWVSGISWNSGSIGYADSVKGRFTISRDNAKKSLYLQMSGLRPEDTALYYCVKSGFYYVRSYFDNWGQGTLVTVSS VL: DIVMTQSPLSLPVTPGEPASISCRSSQSLLDSDDGNTYLDWYLRKPGQSPQLLIYTLSYRASGVPDRFSGSGSGTDFTLKISRVEADDVGVYYCMQRIEFPLTFGGGTKVEIKR	55500	77800	19000	19400	90%	0.36 nM
REGN7974 (antibody, human IgG4 S228P, kappa, V domains shown, fully human; human IgG4 Fc with hinge S108P; also called mAb41422) VH: EVQLVESGGGLVQPGRSLRLSCIASGFNFGDYGMSWVRQAPGKGLEWVGFIRSKAYGGTTEYAASVKGRFTISRDDSKSIAYLQMNSLKTEDAAMYYCSRDYYDILTGYYGDYWGQGTLVTVSS VL: not shown	40900	56700	6960	6220	86%	5.1 nM
